The text below walks through data of CN112159469A (SHANGHAI PUBLIC HEALTH CLINICAL CT, dated 2021).

Sequences and labels used below:
B1: 单抗4L12 (antibody, V domains shown)
VH: EVQLVESGGGLVQPGGSLRLSCAASGITVSSNYMNWVRQAPGRGLEWVSLLYSGGSTYYADSVKGRFTISRDNSKNTLYLQMNSLRAEDTAVYYCARDLITYGMDVWGQGTTVTVSS
VL: AIQLTQSPSSLSASVGDRVTITCRASQGISSYLAWYQQKPGKAPKLLIYAASTLQSGVPSRFSGSGSGTDFTLTISSLQPEDFATYYCQQLNSYPPLTFGGGTKVEIK
B2: 单抗12F5 (antibody, V domains shown)
VH: EVQLVESGGGLIQPGGSLRLSCAASGFTVSSNYMSWVRQAPGKGLEWVSVIYSGGSTFYADSVKGRFTISRDNSKNTLYLQMNSLRAEDTAVYYCARDLIDYGMDVWGQGTTVTVSS
VL: DIQLTQSPSFLSASVGDRVTITCRASQGISSYLAWYQQKPGKAPKLLIYAASTLQSGVPSRFSGSGSGTEFTLTISSLQPEDFATYYCQQLNSYPPYTFGQGTKLEIK
B3: 单抗16L9 (antibody, V domains shown)
VH: EVQLVESGGGLIQPGGSLRLSCAASGFTVSSNYMSWVRQAPGKGLEWVSVIYSGGSTYYADSVKGRFTISRDNSENTLYLQMNSLRAEDTAVYYCARGEIQPYYYYGMDVWGQGTTVTVSS
VL: QSVLTQPPSASGSPGQSVTISCTGTSSDFGGYNSVSWYQQHPGKAPKLMIYEVSKRPSGVPDRFSGSKSGNTASLTVSGLQAEDEADYYCSSYAGSNNFDVFGTGTKVTVL
B4: 单抗10C2 (antibody, V domains shown)
VH: EVQLVESGGGLIQPGGSLRLSCAASGLTVSSNYMNWVRQAPGKGLEWVSVIYSGGSTYYADSVKGRFTISRDNSKNTLYLQMNSLRAEDTAVYYCARLLVATIRDFDYWGQGTLVTVSS
VL: not shown
B5: 单抗22H22 (antibody, V domains shown)
VH: EVQLVESGGALIQPGGSLRLSCAASGLTVSSNYMTWVRQAPGKGLEWVSVIYSGGSTYYADSVKGRFTISRDNSKNTLYLQMNSLRAEDTAVYYCARGYGDYENYFDYWGQGTLVTVSS
VL: AIQLTQSPSSLSASVGDRVTITCRASQGISSYLAWYQQKPGKAPKLLIYAASTLQGGVPSRFSGSGSGTDFTLTISSLQPEDFATYYCQHLWTFGQGTKVEIK
B6: 单抗3D13 (antibody, V domains shown)
VH: EVQLVESGGGLIQPGGSLRLSCAASGLTVSSNYMSWVRQAPGKGLEWVSVIYSGGSAFYADSVKGRFTISRDNSKNTLYLQMNSLRAEDTAVYYCARDLSSAGGMDVWGQGTTVTVSS
VL: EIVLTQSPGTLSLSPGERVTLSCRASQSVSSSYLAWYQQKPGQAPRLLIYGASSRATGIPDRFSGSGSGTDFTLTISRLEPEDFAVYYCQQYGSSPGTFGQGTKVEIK
B7: 单抗20E21 (antibody, V domains shown)
VH: EVQLVESGGGLFQPGGSLRLSCAASGLTVSSNYMSWVRQAPGKGLECVSVIYSGGSTYYADSVKGRFTISRDNSKNTLYLQMNSLRAEDTAVYYCARDRGMLHGMDVWGQGTTVTVSS
VL: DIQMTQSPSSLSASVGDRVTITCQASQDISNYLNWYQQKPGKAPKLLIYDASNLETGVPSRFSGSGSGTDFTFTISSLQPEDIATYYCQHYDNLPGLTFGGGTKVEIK

The target in this assay is SARS-CoV-2病毒的S1蛋白的RBD (SARS-CoV-2, UniProt P0DTC2 319-541). Nature of the assay: BLI (OctetRED96), antibody captured on AHC probe, RBD in solution from 100 nM in 3-fold dilutions, 1:1 global fit.
In the case of B1, binding was characterised by a dissociation constant (Kd) of 1.49 nM. As for B2, binding was put at a Kd of 2.22 nM.

For B3, binding was characterised by a dissociation constant (Kd) of 1.21 nM.

As for B4, the affinity, expressed as Kd, was 3.36 nM. This Kd lies about 2.8-fold higher than the previous one.

As to B5, the Kd (in general, the free concentration of one partner at which half of the binding sites on the other are occupied at equilibrium, for simple one-to-one binding) was found to be 5.07 nM. In the case of B6, the Kd was 4.17 nM. To B7 belongs 2.3 nM.
